For data set [1], the system named is O=C(O)CC(C(=O)O)C(O)C(=O)O. Description: purified protein. As to conditions: Mn2+ (2 mM MnCl2), NADP+ co-substrate, 35 mM Tris-HCl pH 7.5, 25 °C, DL-isocitrate in the assay.
Data set [2] deals with NC(=O)c1ccc[n+]([C@@H]2O[C@H](COP(=O)(O)OP(=O)(O)OC[C@H]3O[C@@H](n4cnc5c(N)ncnc54)[C@H](OP(=O)(O)O)[C@@H]3O)[C@@H](O)[C@H]2O)c1. As to the kind of experiment: purified protein. The following applies: Mn2+ (2 mM MnCl2), 1.0 mM isocitrate, 35 mM Tris-HCl pH 7.5, 25 °C, varied: cofactor.
For data set [3], the target named is Isocitrate dehydrogenase 2 from Acinetobacter baumannii (AbIDH2) (Acinetobacter baumannii). Description: AUC; sedimentation velocity, Beckman XL-A, An-60 Ti rotor, 20 °C, 45,000 g, continuous c(s) distribution.
Data set [4] has the same target. Description: SEC; analytical gel filtration, Superdex 200 10/300 column, 50 mM NaH2PO4 pH 7.5, 300 mM NaCl, flow rate 0.5 mL/min; mass from a calibration curve.

For “AbIDH2 (Acinetobacter baumannii ATCC 19606 = CIP 70.34 = JCM 6841)”, in data set [1], the Km was 20.6 ± 3.1 µM and the kcat was 39.2 ± 2.1 s⁻¹. For the same substance, in data set [2], the Michaelis constant (Km) worked out at 94 ± 6 µM, the kcat worked out at 36.9 ± 1.2 s⁻¹ and the kcat/Km is 390000 M⁻¹ s⁻¹.
Consider “Isocitrate dehydrogenase 2 from Acinetobacter baumannii (AbIDH2) (enzyme)”, for which the stoichiometry N in data set [3] and in data set [4] was 2 each time.

The values above are taken from paper PMC5979607, “Crystal Structure of the Isocitrate Dehydrogenase 2 from Acinetobacter baumannii (AbIDH2) Reveals a Novel Dimeric Structure with Two Monomeric-IDH-Like Subunits” (International Journal of Molecular Sciences, 2018).
